# Key:
# IGF2BP3 (recombinant) [1] = biological target: IGF2BP3 (recombinant) (UniProt O00425); experiment: filter binding; conditions: FBA/EMSA: 10 mM Tris-Cl pH 7.5, 50 mM KCl, 1 mM EDTA, 0.05% Triton X, 5% glycerol, 1 mM DTT, 37 C 20 min, pull-down: lysate mixed 1:1 with 2x TENT (100 mM Tris …)
# IGF2BP3 (recombinant) [2] = biological target: IGF2BP3 (recombinant) (UniProt O00425); experiment: EMSA; conditions: no binding up to 100 nM; Kd >>100 nM; FBA/EMSA: 10 mM Tris-Cl pH 7.5, 50 mM KCl, 1 mM EDTA, 0.05% Triton X, 5% glycerol, 1 mM DTT, 37 C 20 min; pull-down: lysate mixed 1:1 with 2x TENT (100 mM Tris …)
# Chain of IGF2BP3 (recombinant) (O00425 whole entry): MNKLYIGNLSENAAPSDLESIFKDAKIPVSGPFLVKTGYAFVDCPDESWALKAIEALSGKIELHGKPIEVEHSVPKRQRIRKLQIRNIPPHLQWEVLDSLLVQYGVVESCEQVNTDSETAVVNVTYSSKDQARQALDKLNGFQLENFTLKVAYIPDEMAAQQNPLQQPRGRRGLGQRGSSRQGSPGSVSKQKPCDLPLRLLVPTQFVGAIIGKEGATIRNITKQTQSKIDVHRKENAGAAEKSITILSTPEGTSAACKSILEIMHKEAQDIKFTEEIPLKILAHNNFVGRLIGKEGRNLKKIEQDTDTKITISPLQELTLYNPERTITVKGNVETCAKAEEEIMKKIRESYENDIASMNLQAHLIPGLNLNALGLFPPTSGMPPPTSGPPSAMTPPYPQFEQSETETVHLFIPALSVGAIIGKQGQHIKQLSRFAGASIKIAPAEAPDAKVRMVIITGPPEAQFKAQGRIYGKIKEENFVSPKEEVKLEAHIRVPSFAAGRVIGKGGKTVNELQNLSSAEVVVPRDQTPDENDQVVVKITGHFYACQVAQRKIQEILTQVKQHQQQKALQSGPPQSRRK
substance,measurement,setting,value
FMR1-5'UTR RNA with 16 CGG repeats (FMR1-16CGG),Kd,IGF2BP3 (recombinant) [1],3.15 nM
UAAUAAUAAUAAUAAUAAUAAUAAUAAUAAUAAUAAUAAUAAUAAUAAUAAUAAUAAUAA [(UAA)20 RNA],Kd,"IGF2BP3 (recombinant) [1]; no binding up to 100 nM, Kd >>100 nM",> 100 nM
same,Kd,IGF2BP3 (recombinant) [2],> 100 nM
